To fix the notation:
B1: THAP domain-containing protein 1 (Homo sapiens), Q9NVV9 (parent)
chain: MVQSCSAYGCKNRYDKDKPVSFHKFPLTRPSLCKEWEAAVRRKNFKPTKYSSICSEHFTPDCFKRECNNKLLKENAVPTIFLCTEPHDKKEDLLEPQEQLPPPPLPPPVSQVDAAIGLLMPPLQTPVNLSVFCDHNYTVEDTMHQRKRIHQLEQQVEKLRKKLKTAQQRCRRQERQLEKLKEVVHFQKEKDDVSERGYVILPNDYFEIVEVPA

The first test covers variants of B1. Conditions: with hcfc1_human HCFC1, P51610.
Sequence of hcfc1_human HCFC1, P51610 (P51610 whole entry): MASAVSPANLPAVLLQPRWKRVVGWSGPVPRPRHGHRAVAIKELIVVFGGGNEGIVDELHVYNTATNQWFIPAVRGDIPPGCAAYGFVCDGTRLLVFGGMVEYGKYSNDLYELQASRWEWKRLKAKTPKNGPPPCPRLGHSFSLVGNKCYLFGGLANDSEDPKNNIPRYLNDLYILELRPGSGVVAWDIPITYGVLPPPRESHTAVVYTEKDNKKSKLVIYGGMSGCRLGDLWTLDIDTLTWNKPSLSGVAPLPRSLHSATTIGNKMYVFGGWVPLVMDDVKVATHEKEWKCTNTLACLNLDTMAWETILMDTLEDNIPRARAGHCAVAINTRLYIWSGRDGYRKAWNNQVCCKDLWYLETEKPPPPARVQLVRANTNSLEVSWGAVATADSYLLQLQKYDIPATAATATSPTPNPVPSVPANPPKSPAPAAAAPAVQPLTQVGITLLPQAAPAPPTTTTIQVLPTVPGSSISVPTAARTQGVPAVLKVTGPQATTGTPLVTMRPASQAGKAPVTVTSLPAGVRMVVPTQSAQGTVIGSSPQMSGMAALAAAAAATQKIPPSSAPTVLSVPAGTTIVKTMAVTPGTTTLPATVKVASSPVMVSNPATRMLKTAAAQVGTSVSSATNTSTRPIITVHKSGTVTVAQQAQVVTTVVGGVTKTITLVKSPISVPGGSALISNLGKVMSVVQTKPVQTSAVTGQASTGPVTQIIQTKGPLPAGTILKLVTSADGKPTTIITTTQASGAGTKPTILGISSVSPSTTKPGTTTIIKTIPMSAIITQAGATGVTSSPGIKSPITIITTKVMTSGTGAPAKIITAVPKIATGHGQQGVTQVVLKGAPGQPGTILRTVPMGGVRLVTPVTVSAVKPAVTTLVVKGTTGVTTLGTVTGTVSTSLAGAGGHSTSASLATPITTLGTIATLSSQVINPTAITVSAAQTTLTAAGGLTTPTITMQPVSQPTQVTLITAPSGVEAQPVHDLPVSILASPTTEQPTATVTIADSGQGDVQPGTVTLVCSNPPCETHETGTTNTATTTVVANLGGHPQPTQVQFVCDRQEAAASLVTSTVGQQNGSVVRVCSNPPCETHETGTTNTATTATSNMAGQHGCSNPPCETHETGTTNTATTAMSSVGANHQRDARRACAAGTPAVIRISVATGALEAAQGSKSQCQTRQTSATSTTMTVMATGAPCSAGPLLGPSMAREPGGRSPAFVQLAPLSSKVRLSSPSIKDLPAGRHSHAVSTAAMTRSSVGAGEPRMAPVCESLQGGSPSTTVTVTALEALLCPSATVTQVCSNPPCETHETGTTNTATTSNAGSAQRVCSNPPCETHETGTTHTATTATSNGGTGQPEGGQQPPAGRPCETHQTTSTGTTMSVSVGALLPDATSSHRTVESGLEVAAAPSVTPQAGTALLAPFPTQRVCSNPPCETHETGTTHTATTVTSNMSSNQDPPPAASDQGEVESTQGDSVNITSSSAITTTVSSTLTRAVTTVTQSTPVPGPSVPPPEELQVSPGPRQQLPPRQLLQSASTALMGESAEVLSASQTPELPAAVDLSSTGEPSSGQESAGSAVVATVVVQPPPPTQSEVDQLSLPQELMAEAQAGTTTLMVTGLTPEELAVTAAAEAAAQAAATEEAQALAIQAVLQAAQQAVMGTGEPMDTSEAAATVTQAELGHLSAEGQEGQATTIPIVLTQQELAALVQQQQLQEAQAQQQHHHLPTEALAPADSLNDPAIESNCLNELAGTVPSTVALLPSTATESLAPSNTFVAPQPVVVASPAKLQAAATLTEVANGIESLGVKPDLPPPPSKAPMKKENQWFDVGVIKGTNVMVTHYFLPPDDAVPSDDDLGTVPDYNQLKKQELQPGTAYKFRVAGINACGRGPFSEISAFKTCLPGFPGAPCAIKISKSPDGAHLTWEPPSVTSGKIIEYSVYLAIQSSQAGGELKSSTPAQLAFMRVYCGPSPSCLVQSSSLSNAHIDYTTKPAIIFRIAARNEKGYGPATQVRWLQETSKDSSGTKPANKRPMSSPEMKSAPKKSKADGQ
Turning to N136S, the “effect of a mutation on the interaction” value is listed as “disrupting interaction strength”.

Take N136K: the “effect of a mutation on the interaction” value is “disrupting interaction strength”.

Regarding Y137C, the “effect of a mutation on the interaction” value is “disrupting interaction strength”.

Variants of B1 are the subject of a further test. Conditions: with hcfc1_human HCFC1, P51610. This is another data set of the same source.
N136S: the “effect of a mutation on the interaction” value is “decreasing interaction strength”.
